Measurements published in the RNAGym collection of RNA variant scans (doi:10.1093/molbev/msab373).

B1: Azoarcus group I ribozyme (parent)
chain: GUGCCUUGCGCCGGGAAACCACGCAAGGGAUGGUGUCAAAUUCGGCGAAACCUAAGCGCCCGCCCGGGCGUAUGGCAACGCCGAGCCAAGCUUCGGCGCCUGCGCCGAUGAAGGUGUAGAGACUAGACGGCACCCACCUAAGGCAAACGCUAUGGUGAAGGCAUAGUCCAGGGAGUGGCGAAAGUCACACAAACCGG

Variants of: B1
Test: reverse-splicing fitness (ratio to wild type); higher = more active; in vitro selection; Mg2+ level not given
Procedure, shortened: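 An in vitro group I ribozyme library with randomized positions was T7-transcribed and gel-purified. In triplicate, 10 pmol RNA in EPPS pH 7.5 was reacted with 50 pmoles of a 30-nt RNA substrate for 1 h at 37 °C across several added MgCl2 levels (1–48 mM), then stopped with EDTA. Products were reverse transcribed from a substrate-complementary primer, PCR-amplified and sequenced (HiSeq 4000). Fitness is a variant's read proportion after selection over that before, normalised to wild type.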

| Variant | reverse-splicing fitness |
| --- | --- |
| C82A A145C C150G C169U U176C | 0.00749 |
| C82A A145C C150G C169U U176G | 0.00534 |
| C82A A145C C150G C169U U176A | 0.00823 |
| C82A A145G C150U C169U U176A | 0.0129 |
| C82A A145G C150U C169U U176G | 0.00555 |
| C82A A145G C150U C169U U176C | 0.0136 |
| C82G A111C A120C A145C C150A U176G | 0.00623 |
| C82G A111C A120C A145C C150A U176A | 0.00989 |
| C82G A111C A120C A145C C150A U176C | 0.0115 |
| C82G A111C A120C A145C U176C | 0.0241 |
| C82G A111C A120C A145C U176A | 0.0166 |
| C82G A111C A120C A145C U176G | 0.00711 |
| C82G A111C A120C A145C C169A U176C | 0.0118 |
| C82G A111C A120C A145C C169A U176A | 0.0175 |
| C82G A111C A120C A145C C169A U176G | 0.0064 |
| C82A A145C C150U C169U U176C | 0.00806 |
| C82A A145C C150U C169U U176A | 0.0125 |
| C82A A145C C150U C169U U176G | 0.00481 |
| C82A A145G U176G | 0.113 |
| C82A A145G U176C | 0.488 |
| C82A A145G U176A | 0.387 |

| Variant | reverse-splicing fitness |
| --- | --- |
| C82A A145U C150U C169A U176C | 0.00936 |
| C82A A145U C150U C169A U176G | 0.00602 |
| C82A A145U C150U C169A U176A | 0.0121 |
| C82A U176C | 0.484 |
| C82A U176A | 0.407 |
| C82A U176G | 0.12 |
| C82A A145G C150A | 0.0995 |
| C82A A145G C150G | 0.0693 |
| C82A A145G C150U | 0.544 |
| C82A C169G U176G | 0.00442 |
| C82A C169G U176A | 0.0139 |
| C82A C169G U176C | 0.0234 |
| C82A A145G C150G C169G U176C | 0.0134 |
| C82A A145G C150G C169G U176A | 0.0112 |
| C82A A145G C150G C169G U176G | 0.00659 |
| C82A A145G C169U U176C | 0.0143 |
| C82A A145G C169U U176G | 0.00459 |
| C82A A145G C169U U176A | 0.0146 |
| C82A A145C C150G C169U | 0.00817 |
| C82A A145C C150U C169G U176A | 0.0196 |
| C82A A145C C150U C169G U176G | 0.00628 |

| Variant | reverse-splicing fitness |
| --- | --- |
| C82A A145C C150U C169G U176C | 0.0113 |
| C82A A145G C169G U176A | 0.0218 |
| C82A A145G C169G U176G | 0.00481 |
| C82A A145G C169G U176C | 0.0324 |
| C82A C150U C169U U176A | 0.0141 |
| C82A C150U C169U U176C | 0.016 |
| C82A C150U C169U U176G | 0.00577 |
| C82A A145G C150A C169U U176G | 0.00699 |
| C82A A145G C150A C169U U176A | 0.0138 |
| C82A A145G C150A C169U U176C | 0.0137 |
| C82A A145U C169G U176G | 0.00461 |
| C82A A145U C169G U176C | 0.0127 |
| C82A A145U C169G U176A | 0.0105 |
| C82G A111C A120C A145C C169U | 0.0151 |
| C82G A111C A120C A145C C169A | 0.00657 |
| C82G A111C A120C A145C C169G | 0.00843 |
| C82A A145U C150G U176G | 0.0081 |
| C82A A145U C150G U176A | 0.0365 |
| C82A A145U C150G U176C | 0.0521 |
| C82G A111C A120C A145G | 0.053 |
| C82G A111C A120C A145C | 0.0447 |

| Variant | reverse-splicing fitness |
| --- | --- |
| C82A C150U | 0.367 |
| C82A C150G | 0.0487 |
| C82A C150A | 0.0666 |
| C82A A145U C150A U176C | 0.0555 |
| C82A A145U C150A U176G | 0.0181 |
| C82A A145U C150A U176A | 0.0485 |
| C82G A111C A120C A145C C150U C169U | 0.011 |
| C82G A111C A120C A145C C150U C169G | 0.00697 |
| C82G A111C A120C A145C C150U C169A | 0.00728 |
| C82G A111C A120C A145C C150A C169G U176G | 0.00758 |
| C82G A111C A120C A145C C150A C169G U176A | 0.0271 |
| C82G A111C A120C A145C C150A C169G U176C | 0.0215 |
| C82G A111C A120C A145C C150G U176G | 0.00325 |
| C82G A111C A120C A145C C150G U176A | 0.00528 |
| C82G A111C A120C A145C C150G U176C | 0.00825 |
| C82A A145U C169A U176A | 0.00948 |
| C82A A145U C169A U176C | 0.00899 |
| C82A A145U C169A U176G | 0.00484 |
| C82G A111C A120C A145C C150G C169U U176C | 0.0123 |
| C82G A111C A120C A145C C150G C169U U176A | 0.00824 |
